Experimental data as given in the supplement of paper PMC7877785.
± gives the uncertainty stated by the source.

Assay: self-splicing fitness, log relative to wild type (ln ratio); higher = more splicing; Tetrahymena group I intron in knt gene, E. coli kanamycin selection, DiMSum; sequences stand for … in CUCUCU…GGAGGGAAAAGUUAUCAGGCAUGCACCUGGUAGCUAGUCUUUAAACCAAUAGAUUGCAUCGGUUUAAAAGGCAAGACCGUCAAAUUGCGGGAAAGGGGUCAACAGCCGUUCAGUACCAAGUCUCAGGGGAAACUUUGAGAUGGCCUUGCAAAGGGUAUGGUAAUAAGCUGACGGACAUGGUCCUAACCACGCAGCCAAGUCCUAAGUCAACAGAUCUUCUGUUGAUAUGGAUGCAGUUCACAGACUAAAUGUCGGUCGGGGAAGAUGUAUUCUUCUCAUAAGAUAUAGUCGGACCUCUCCUUAAUGGGAGCUAGCGGAUGAAGUGAUGCAACACUGGAGCCGCUGGGAACUAAUUUGUAUGCGAAAGUAUAUUGAUUAGUUUUGGAGUACUCGUGGUCG
In short: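 The eight P1ex-region nucleotides of an intron in the knt kanamycin-resistance gene on pET-22b(+) were all randomised and the library put into E. coli BL21(DE3). Six replicate transformations were grown overnight at 37°C or 30°C on LB agar with or without 25 μg/mL kanamycin, together with 100 μg/mL carbenicillin, 50 μM IPTG and 0.2% rhamnose. Colonies were pooled and amplicon-sequenced on an Illumina HiSeq 2500. Fitness from DiMSum is the error-weighted combination of wild-type-normalised replicate fold changes, kanamycin over none.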

Sequence | self-splicing fitness (ln) (30 °C) | self-splicing fitness (ln) (37 °C)
AACCAGCAAUAUUACGAGUU | -3.37 ± 0.16 | -1.78 ± 0.14
UUUGAGCAAUAUUACGAGAG | -2.2 ± 0.32 | 
UGUGAGCAAUAUUACGUUAC | -3.75 ± 0.37 | -2.6 ± 0.38
UACUAGCAAUAUUACGGAUG | -0.926 ± 0.077 | -0.112 ± 0.11
AAUCAGCAAUAUUACGAUCU | 0.0008 ± 0.059 | 0.914 ± 0.088
AUAAAGCAAUAUUACGCCUC | -0.875 ± 0.14 | -0.532 ± 0.2
CGAUAGCAAUAUUACGAUAG | -0.572 ± 0.089 | -0.275 ± 0.1
GUCCAGCAAUAUUACGUUAG | -3.15 ± 0.11 | -1.19 ± 0.095
GCAUAGCAAUAUUACGCGCC | -3.02 ± 0.49 | -1.93 ± 0.36
CGACAGCAAUAUUACGCCGG | -0.394 ± 0.059 | -0.272 ± 0.067
GCUAAGCAAUAUUACGGAUG | -1.52 ± 0.081 | -0.677 ± 0.12
CACGAGCAAUAUUACGAUUG | -2.19 ± 0.11 | -1.6 ± 0.13
CCCAAGCAAUAUUACGAGCC | -3.79 ± 0.4 | -2.79 ± 0.44
AUGUAGCAAUAUUACGAGUU | -1.68 ± 0.11 | -0.948 ± 0.11
CAGCAGCAAUAUUACGCCGG | -0.792 ± 0.09 | -0.31 ± 0.098
CGGCAGCAAUAUUACGAUAG | -0.0988 ± 0.079 | -0.126 ± 0.086
GGAUAGCAAUAUUACGAGUG | -3.38 ± 0.22 | -1.41 ± 0.14
CUAAAGCAAUAUUACGCUUU | -4.2 ± 0.33 | -2.35 ± 0.29
CCGGAGCAAUAUUACGACAU | -3.816 ± 0.032 | -3.02 ± 0.045
GGAGAGCAAUAUUACGCAAU | -3.02 ± 0.2 | -2.55 ± 0.31
CUCCAGCAAUAUUACGCUCG | -3.69 ± 0.27 | -2.36 ± 0.39

Sequence | self-splicing fitness (ln) (30 °C) | self-splicing fitness (ln) (37 °C)
GGUCAGCAAUAUUACGCCAG | -3.3 ± 0.47 | -3.3 ± 0.4
AGAGAGCAAUAUUACGGUGG | -2.76 ± 0.23 | -3.44 ± 0.37
CACGAGCAAUAUUACGAUAC | -3.07 ± 0.24 | -2.73 ± 0.36
UGAAAGCAAUAUUACGAGCU | -1.42 ± 0.14 | -0.746 ± 0.17
ACGUAGCAAUAUUACGAUUA | -0.625 ± 0.12 | -0.514 ± 0.11
ACUUAGCAAUAUUACGCAUG | -1.76 ± 0.085 | -0.581 ± 0.11
AACGAGCAAUAUUACGCAUC | -3.65 ± 0.3 | -0.331 ± 0.18
CUGAAGCAAUAUUACGAUGG | -0.0919 ± 0.065 | 0.123 ± 0.095
UCACAGCAAUAUUACGCCCU | -3.66 ± 0.35 | -0.688 ± 0.2
CCCAAGCAAUAUUACGUACU | -3.84 ± 0.19 | -2.46 ± 0.21
ACCUAGCAAUAUUACGGGUU | -2.78 ± 0.14 | -1.95 ± 0.14
GAUAAGCAAUAUUACGAAAC | -2.38 ± 0.2 | -0.746 ± 0.19
UUCCAGCAAUAUUACGUUGA | -1.63 ± 0.078 | -1.17 ± 0.092
CAGGAGCAAUAUUACGCAUU |  | 0.11 ± 0.4
CGCUAGCAAUAUUACGGGUU | -2.73 ± 0.082 | -2.04 ± 0.11
AUGGAGCAAUAUUACGAUAC |  | -1.71 ± 0.48
CCUGAGCAAUAUUACGUACU | -2.04 ± 0.21 | -2.3 ± 0.3
CACUAGCAAUAUUACGCGGC | -3.47 ± 0.28 | -2.97 ± 0.25
ACGUAGCAAUAUUACGCCAU | -3.02 ± 0.19 | -2.55 ± 0.24
CUCUAGCAAUAUUACGGGUC | -5.03 ± 0.34 | -2.21 ± 0.18
GGACAGCAAUAUUACGCUUA | -0.319 ± 0.08 | 0.1 ± 0.1

Sequence | self-splicing fitness (ln) (30 °C) | self-splicing fitness (ln) (37 °C)
UCUAAGCAAUAUUACGGUGG | -1.18 ± 0.082 | -0.0857 ± 0.13
CGCCAGCAAUAUUACGUGUG | -2.82 ± 0.094 | -1.81 ± 0.11
UAGCAGCAAUAUUACGAGGA | -3.39 ± 0.17 | -2.06 ± 0.13
CGUAAGCAAUAUUACGGUUC |  | -2.59 ± 0.26
UACGAGCAAUAUUACGACAU | -3.899 ± 0.031 | -2.47 ± 0.04
UUGCAGCAAUAUUACGAGUG | -1.61 ± 0.1 | -1.46 ± 0.13
CAUUAGCAAUAUUACGCACU | -1.26 ± 0.1 | -0.806 ± 0.13
GGCGAGCAAUAUUACGGAUC | -0.443 ± 0.053 | 0.039 ± 0.075
GGGUAGCAAUAUUACGCGCA | -0.0848 ± 0.13 | -0.0359 ± 0.14
AAAUAGCAAUAUUACGUUUG | -2.04 ± 0.1 | -1.49 ± 0.11
GUCCAGCAAUAUUACGGCGG | -4.63 ± 0.42 | -1.4 ± 0.29
GACAAGCAAUAUUACGUAUU | -2.83 ± 0.1 | -1.66 ± 0.11
GACCAGCAAUAUUACGCCUU | -0.277 ± 0.07 | 0.293 ± 0.087
AUGCAGCAAUAUUACGGAUG | -4.6 ± 0.29 | -1.08 ± 0.13
AUUAAGCAAUAUUACGUCCC | -0.338 ± 0.18 | 0.486 ± 0.23
GGCUAGCAAUAUUACGAAAU | -1.67 ± 0.22 | 0.0518 ± 0.2
AAAAAGCAAUAUUACGCUGA | -4.19 ± 0.34 | -1.7 ± 0.17
AGUUAGCAAUAUUACGAGCC | -1.84 ± 0.13 | -1.12 ± 0.13
ACUAAGCAAUAUUACGUGCA | -1.37 ± 0.073 | -0.431 ± 0.11
